Measured values: patent US5196309A, “Characterization of platelet aggregation disorders” (The Scripps Research Institute, priority 1990, dated 1993)
Where no end group is shown, it is not given here.

Key:
[1] = tested on: platelets; assay: 125I-fibrinogen binding to platelets; conditions: 10 uM ADP; 37 degrees, 30 minutes
Procedure: Fibrinogen was isolated and labelled with ^125 I by standard methods as described by Marguerie et al., J. Biol. Chem., 255:154-161 (1980) to form ^125 I-Fg. Thereafter, the binding of ^125 I-Fg to platelets was assayed as described previously. Marguerie et al., J. Biol. Chem., 255:154-161 (1980). Binding was initiated by the admixture of a million resting platelets in the presence or absence of 10 micromolar adenosine diphosphate (ADP) to radiolabelled fibrinogen at varying concentrations from 0.01 to 1 nanomolar (nM) and incubation at 37 degrees for 30 minutes. Bound fibrinogen was separated from free fibrinogen by centrifugation of the platelet-fibrinogen admixture through 0.3 ml of 20% sucrose and the amount of radiolabelled fibrinogen associated with the cell pellet determined by gamma detection.

[2] = molecular target: T1, GPIIb-IIIa on normal platelets (Homo sapiens, UniProt P05106+P08514); assay: Flow cytometry of platelet surface GPIIb-IIIa, normal (control) platelets; type: binding
T1 construct: Analysis of Platelet Surface GPIIb-IIIa by Flow Cytometry; from tissue; host or cells: platelets in platelet-rich plasma from venous blood of controls
Procedure: (§1) Samples were incubated without stirring in a total volume of 50 μL for 15 minutes at room temperature with agonists and peptides as indicated. Samples were then diluted to 0.5 mL with Tyrode's buffer and analyzed on a FACStar flow cytometer (Bectin-Dickinson Immunocytometry Systems, Mountain View, Calif.). Light scatter and fluorescence signals were acquired at logarithmic gain, and 10,000 platelets in each sample were analyzed. Results are expressed as mean platelet fluorescence intensity in arbitrary fluorescence units or as histograms of log platelet fluorescence intensity in arbitrary units on the abscissa and platelet number on the ordinate.

[3] = molecular target: T2, GPIIb-IIIa on Cam platelets (Homo sapiens, UniProt P05106+P08514, D145Y); assay: Flow cytometry of platelet surface GPIIb-IIIa, Cam variant thrombasthenia platelets; type: binding
T2 construct: from tissue; host or cells: platelets in platelet-rich plasma from venous blood of two Cam variant siblings
From the text: FIGS. 2A through 2H show a flow cytometric analysis of the deficit in Cam variant of thrombasthenia. Shown are histograms with the log of fluorescence intensity on the abscissa and cell number on the ordinate. The reporting antibody is indicated in the left hand column. Cam platelets are shown in FIGS. 2A, 2C, 2E and 2G and the normal control in FIGS. 2B, 2D, 2F and 2H. Each column of figures contains a legend indicating the added agonist, peptide, or antibody. […] Similar data were obtained with other antibodies to GPIIb-IIIa (7E3, 10E5, 4F10) and an antibody to GPIIb (Tab). The Cam variant data shown are representative of determinations on two affected male siblings with identical results.
Based on the model depicted in FIG. 1, abnormal platelet aggregation can arise from a defect in the activation of platelet fibrinogen receptors, a defect in fibrinogen binding per se, or a defect in the postoccupancy events required for optimal aggregation. The potential usefulness of this model was tested by studying two patients with persistent and severe defects in platelet aggregation. To quantitate fibrinogen receptor activation and ligand binding, a fluorescein-labeled MoAb (PAC1) which specifically recognizes the activated form of GPIIb-IIIa, was employed (Shattil et al., J. Biol. Chem., 260:11107 (1985)). Antibody binding was measured in small (5 μL) samples of platelet rich plasma by flow cytometry.
Platelet rich plasma was obtained by taking venous blood from patients and controls who had not ingested medications for at least 10 days, anticoagulating with 1/10 volume of 3.8% sodium citrate, and sedimentating red and white blood cells at 180 g for 20 minutes at room temperature. Immediately thereafter, 5-μL aliquots of platelet-rich plasma were added to polypropylene tubes containing a fluorescein isothiocyanate-conjugated monoclonal antibody (10^-9 to 10^-6 mol/L) in Tyrode's buffer (1% bovine serum albumin, 2 mmol/L MgCl2, 137.5 mmol/L NaCl, 12 mmol/L NaHCO3, 2.6 mmol/L KCl, pH 7.4). Samples were incubated without stirring in a total volume of 50 μL for 15 minutes at room temperature with agonists and peptides as indicated. Samples were then diluted to 0.5 mL with Tyrode's buffer and analyzed on a FACStar flow cytometer (Bectin-Dickinson Immunocytometry Systems, Mountain View, Calif.). Light scatter and fluorescence signals were acquired at logarithmic gain, and 10,000 platelets in each sample were analyzed. Results are expressed as mean platelet fluorescence intensity in arbitrary fluorescence units or as histograms of log platelet fluorescence intensity in arbitrary units on the abscissa and platelet number on the ordinate.

[4] = tested on: normal GPIIb-IIIa; assay: KYGRGDS affinity chromatography of surface-labeled platelet lysate, normal platelets; type: binding, human
Procedure: (§2) To directly examine the ligand binding function of Cam GPIIb-IIIa, extracts of ^125 I surface-labeledplatelets were subjected to affinity chromatography using an immobilized RGD peptide.
(§3) Platelets were isolated from acid-citrate dextrose anticoagulated human blood by differential centrifugation followed by gel filtration on Sepharose 2B (Ginsberg et al., Blood, 69:58 (1987)). Lysates of surface-labeled platelets were analyzed by KYGRGDS affinity chromatography as described by Lam et al., J. Biol. Chem., 262:947 (1987). Briefly, intact platelets were radioiodinated by the lactoperoxidase-H2 O2 method then resuspended to 2×10^8 platelets/mL and solubilized in lysis buffer containing 10 mmol/L N-2-hydroxyethylpiperazine-N'-2-ethanesulfonic acid (HEPES), pH 7.5, 0.15 mol/L NaCl, 1 mmol/L CaCl2, 1 mmol/L MgCl2, 0.1 mmol/L leupeptin, 1 mmol/L phenylmethanesulfonylfluoride (PMSF), 10 mmol/L N-ethylmaleimide, and 50 mmol/L octylglucoside. […] Under these conditions approximately 10% of normal GPIIb-IIIa is bound and eluted.
(§4) The GPIIb-IIIa content in the starting material and in the column fractions was quantitated by use of a polyclonal anti-GPIIb-IIIa antibody in an ELISA assay. The control extract contained 332 μg; the Cam individual contained 240 μg in the starting extract. The eluted fractions from the control extract contained 20 μg GPIIb-IIIa. […]

[5] = tested on: Cam GPIIb-IIIa; assay: KYGRGDS affinity chromatography of surface-labeled platelet lysate, Cam platelets; type: binding, human; conditions: Cam extract, 240 μg GPIIb-IIIa in starting extract; eluted with GRGDSP
Procedure: as §2, §3, §4

[6] = tested on: GPIIb-IIIa on MPD platelets; assay: Flow cytometry of platelet surface GPIIb-IIIa, myelofibrosis (MPD) patient platelets; type: binding, human
Procedure: The disclosing antibody is indicated in the left hand column. In each column, the legend indicates the added agonist or peptide. Agonist and peptide concentrations were identical to those in FIGS. 2A-2H. Phorbol myristate acetate (PMA) was present in a final concentration of 50 nmol/L. Anti-TSP refers to the binding of a MoAb against thrombospondin.
as §1

[7] = tested on: platelets; conditions: cited from earlier work
[8] = tested on: GPIIb-IIIa; conditions: cited from earlier work

Nc1ncnc2c1ncn2[C@@H]1O[C@H](COP(=O)(O)OP(=O)(O)O)[C@@H](O)[C@H]1O [ADP, adenosine diphosphate]
Increase in number of 125I-Fg molecules bound to platelets [1]: at least a three fold increase

Gly-Arg-Gly-Asp-Ser-Pro [GRGDSP]
Fluorescence Increase (LIBS-1 expression, anti-LIBS 1 binding), Normal ([2]; [GRGDSP] 2 μM, normal platelets): 20
Fluorescence Increase (LIBS-1 expression, anti-LIBS 1 binding), Normal ([2]; [GRGDSP] 4 μM, normal platelets): 31
Fluorescence Increase (LIBS-1 expression, anti-LIBS 1 binding), Normal ([2]; [GRGDSP] 10 μM, normal platelets): 48
Fluorescence Increase (LIBS-1 expression, anti-LIBS 1 binding), Normal ([2]; [GRGDSP] 40 μM, normal platelets): 70
Fluorescence Increase (LIBS-1 expression, anti-LIBS 1 binding), Normal ([2]; [GRGDSP] 200 μM, normal platelets): 106
PMI-1 binding, mean fluorescence intensity ([2]; normal platelets treated with 200 μmol/L GRGDSP): 151 fluorescence units
anti-LIBS1 binding, mean fluorescence ([2]; normal platelets with GRGDSP 200 μmol/L): 205 U
Increase in PMI-1 binding ([2]; normal platelets, 200 μmol/L GRGDSP): 2.5 fold
Increase in anti-LIBS1 binding caused by peptide ([2]; normal platelets, GRGDSP 200 μmol/L): fourfold increase
PMI-1 binding, mean fluorescence intensity ([3]; Cam platelets treated with 200 μmol/L GRGDSP): 107 fluorescence units
anti-LIBS1 binding, mean fluorescence ([3]; Cam platelets with GRGDSP 200 μmol/L): 25 U
Change in PMI-1 binding in response to GRGDSP ([3]; Cam platelets, 200 μmol/L GRGDSP): no increase
Change in anti-LIBS1 binding caused by GRGDSP ([3]; Cam platelets, GRGDSP 200 μmol/L): no increase
Fluorescence Increase (LIBS-1 expression, anti-LIBS 1 binding), Cam ([3]; [GRGDSP] 2 μM, Cam platelets): 3
Fluorescence Increase (LIBS-1 expression, anti-LIBS 1 binding), Cam ([3]; [GRGDSP] 4 μM, Cam platelets): 3
Fluorescence Increase (LIBS-1 expression, anti-LIBS 1 binding), Cam ([3]; [GRGDSP] 10 μM, Cam platelets): 3
Fluorescence Increase (LIBS-1 expression, anti-LIBS 1 binding), Cam ([3]; [GRGDSP] 40 μM, Cam platelets): 3
Fluorescence Increase (LIBS-1 expression, anti-LIBS 1 binding), Cam ([3]; [GRGDSP] 200 μM, Cam platelets): 6

KYGRGDS [Lys-Tyr-Gly-Arg-Gly-Asp-Ser]
GPIIb-IIIa in eluted fractions (ELISA) ([4]; control extract, 332 μg GPIIb-IIIa in starting extract, eluted with GRGDSP): 20 µg
Share of normal GPIIb-IIIa bound to KYGRGDS-Sepharose and eluted ([4]; lysate 12 hours at 4° C., eluted with 1 mmol/L GRGDSP): approximately 10%
GPIIb-IIIa in eluted fractions (ELISA) [5]: 2.6 µg

LGGAKQAGDV [gamma(402-411)]
anti-LIBS1 binding, fluorescence ([2]; control platelets with gamma(402-411) 400 μmol/L): 201 fluorescence U
anti-LIBS1 binding, fluorescence ([3]; Cam platelets with gamma(402-411) 400 μmol/L): 31 U
Change in anti-LIBS1 binding caused by gamma(402-411) ([3]; Cam platelets, gamma(402-411) 400 μmol/L): failed to increase

PAC 1
PAC1 fluorescence of PMA-activated Cam platelets ([3]; 50 nmol/L phorbol myristate acetate (PMA)): no increase
PAC1 binding to ADP-activated Cam platelets ([3]; ADP 100 μmol/L): complete lack of binding
Expression of PAC1 binding sites on stimulated MPD platelets ([6]; 50 μmol/L epinephrine (not shown)): did not express PAC1 binding sites
Expression of PAC1 binding sites on stimulated MPD platelets ([6]; 10 μm ADP): did not express PAC1 binding sites
PAC1 binding to MPD platelets in response to PMA ([6]; PMA 50 nmol/L): bound
Fibrinogen Binding (effect of antibody on fibrinogen binding to platelets) [7]: Decrease
Effect of Peptides (RGD or fibrinogen gamma chain C-terminal peptides) on antibody binding [8]: Decrease
